The target of one experiment is T1, rhOX40-Avi-His (human, UniProt P43489 29-214).
T1 construct: range 29-214; Recombinant protein made from plasmid pCD-OX40-Avi-His; also called OX40抗原; 抗原蛋白OX40; not shown: Avi tag; His tag
T1 sequence (looked up): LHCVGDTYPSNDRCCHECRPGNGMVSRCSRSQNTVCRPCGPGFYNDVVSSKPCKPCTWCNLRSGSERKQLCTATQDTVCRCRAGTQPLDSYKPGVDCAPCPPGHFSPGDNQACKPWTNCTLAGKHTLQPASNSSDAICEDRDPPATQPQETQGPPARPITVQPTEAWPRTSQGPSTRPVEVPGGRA
The experiment is described as follows: ELISA on coated rhOX40-Avi-His.

Experiment [1] deals with T2, human OX40 expressed on Jurkat cells (Jurkat-OX40-NFκB-Luc) (human, UniProt P43489 29-277).
T2 construct: whole, on cells; also called Jurkat-OX40-NFκB-21C6; 表达OX40抗原的Jurkat细胞系
T2 sequence (looked up): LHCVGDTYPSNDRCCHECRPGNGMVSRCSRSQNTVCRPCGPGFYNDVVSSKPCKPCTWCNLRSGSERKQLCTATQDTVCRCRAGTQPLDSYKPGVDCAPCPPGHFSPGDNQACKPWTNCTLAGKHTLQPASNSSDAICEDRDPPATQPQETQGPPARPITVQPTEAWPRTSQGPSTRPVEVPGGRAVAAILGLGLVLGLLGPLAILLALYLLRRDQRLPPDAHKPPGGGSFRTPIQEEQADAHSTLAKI
Kind of experiment: flow cytometry on Jurkat cells expressing OX40, anti-human Fc-FITC. A general note: A flow cytometer gives signals particle by particle.

The next experiment has as its target T3, rhOX40-Avi-His-bio (human, UniProt P43489 29-214, biotin covalently attached to the Avi tag by BirA).
T3 construct: range 29-214; Biotinylated form of rhOX40-Avi-His, captured on SA chip in SPR; also called 生物素标记的抗原; not shown: Avi tag (biotinylated); His tag
T3 sequence (looked up): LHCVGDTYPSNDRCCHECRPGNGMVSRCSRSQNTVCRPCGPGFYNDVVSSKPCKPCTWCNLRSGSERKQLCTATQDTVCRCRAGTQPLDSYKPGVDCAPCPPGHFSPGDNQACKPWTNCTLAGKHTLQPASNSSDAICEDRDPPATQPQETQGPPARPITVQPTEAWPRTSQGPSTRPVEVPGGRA
Kind of experiment: SPR (T200), biotinylated rhOX40-Avi-His-bio captured on SA chip, D7-Fc as analyte.

B1: C7-Fc (Fc fusion)
chain: DVQLVESGGGLVQPGGSLRLSCAASGSIPSDTAMYWFRQAPGKGREWVSVIWGSGVTYYADSVKGRFTISRDNAKNTVYLQMNSLRAEDTAVYYCARTGLGRAYWGQGTQVTVSA
notes: not shown: IgG1 Fc region, from human
As to B1, the binding result with rhOX40-Avi-His was “binds”.

B2: A1-Fc (Fc fusion)
chain: DVQLVESGGGLVQPGGSLRLSCAASGFSYNRTDIRWFRQAPGKGRELVAGIANWGGTTYYADSVKGRFTISRDNAKNTVYLQMNSLRAEDTAVYYCARRRYECVDWIVDPWWDYWGQGTQVTVSA
notes: as for B1
Take B2: the binding result (with rhOX40-Avi-His; in experiment [1]) was “binds” each time.

B3: D7-Fc (Fc fusion)
chain: DVQLVESGGGLVQPGGSLRLSCAASGFTASIYGMRWFRQAPGKGRELVAGIVDAGSATYYADSVKGRFTISRDNAKNTVYLQMNSLRAEDTAVYYCARGNHEGEVGLDYWGQGTQVTVSA
notes: as for B1
For orientation: Kd means the concentration at which binding is half-saturated. In the case of B3, in the experiment with rhOX40-Avi-His-bio, the Kd was about 16.8 nM.

B4: D1-Fc (Fc fusion)
chain: DVQLVESGGGLVQPGGSLRLSCAASGRTASGYTIGWFRQAPGKGRELVSAINRAGSATHYADSVKGRFTISRDNAKNTVYLQMNSLRAEDTAVYYCARSGRWGRYWLAYWGQGTQVTVSA
notes: as for B1
In the case of B4, the binding result (with rhOX40-Avi-His; in experiment [1]) was “binds” each time.

B5: D2-Fc (Fc fusion)
chain: DVQLVESGGGLVQPGGSLRLSCAASGLTSSLYIWGWFRQAPGKGREWVSTIWDADVTDYADSVKGRFTISRDNAKNTVYLQMNSLRAEDTAVYYCARRDFDSLADGLDYWGQGTQVTVSA
notes: as for B1
B5: the binding result (in the experiment with rhOX40-Avi-His; in experiment [1]) was “binds” in each case.

B6: D12-Fc (Fc fusion)
chain: DVQLVESGGGLVQPGGSLRLSCAASGRQFGSYAMSWFRQAPGKGREWVSTIDSAGGSTNYADSVKGRFTISRDNAKNTVYLQMNSLRAEDTAVYYCARLIDWYCIDYFDYWGQGTQVTVSA
notes: as for B1
As to B6, in the experiment with rhOX40-Avi-His, the binding result is on record as “binds”.

The values above are taken from CN114656564A (ANHUI ANKE BIOLOGICAL ENG GROUP CO LTD, dated 2022).
